Test results from patent US20110195900A1, “PEPTIDIC PTH RECEPTOR AGONISTS” (FERRING B.V., priority 2008, published 2011).
Non-standard residues stand in square brackets, D forms with d. Residues, ends and D or L forms follow the SMILES beside them. No end group written: not given here. 1Nal = N[C@@H](Cc1cccc2ccccc12)C(=O)O; 2Nal = N[C@@H](Cc1ccc2ccccc2c1)C(=O)O; β3hI = CC[C@H](C)[C@H](N)CC(=O)O; Nle = CCCC[C@H](N)C(=O)O; β3hA = C[C@H](N)CC(=O)O

Columns and labels:
[1] = biological target: T1, human PTH-2 receptor (Homo sapiens, UniProt P49190); test: Luciferase-based transcriptional reporter gene assay for selectivity; format: cell-based
T1 construct: expressed in transfected cells
T1 sequence (P49190 25-550): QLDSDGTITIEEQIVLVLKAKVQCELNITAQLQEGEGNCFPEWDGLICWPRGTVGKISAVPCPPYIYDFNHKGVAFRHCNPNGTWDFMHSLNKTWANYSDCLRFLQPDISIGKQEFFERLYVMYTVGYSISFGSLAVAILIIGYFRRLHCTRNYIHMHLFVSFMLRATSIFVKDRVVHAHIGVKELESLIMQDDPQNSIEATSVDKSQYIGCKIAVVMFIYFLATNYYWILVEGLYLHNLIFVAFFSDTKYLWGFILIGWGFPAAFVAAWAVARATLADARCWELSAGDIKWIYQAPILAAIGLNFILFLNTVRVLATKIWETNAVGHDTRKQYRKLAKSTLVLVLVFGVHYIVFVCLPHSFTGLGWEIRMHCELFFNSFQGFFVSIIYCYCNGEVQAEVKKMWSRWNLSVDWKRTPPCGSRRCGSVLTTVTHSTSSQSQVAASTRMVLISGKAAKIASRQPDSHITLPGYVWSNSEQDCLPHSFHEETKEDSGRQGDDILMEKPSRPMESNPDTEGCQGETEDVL
In short: (§1)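 Selectivity came from luciferase transcriptional reporter assays expressing human PTH-2 receptor. PTH-1 agonism used transiently transfected HEK-293 cells carrying SV40-promoter receptor and cAMP-responsive-element luciferase; 4-5 h compound exposure, lysis, luminescence, non-linear-regression EC50/efficacy; ≥3 independent runs, PTH (1-34) control each.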

[2] = biological target: T2, human PTH-1 receptor (Homo sapiens, UniProt Q03431); test: Reporter gene assay (CRE-luciferase) for agonist activity in transiently transfected HEK-293 cells; format: cell-based
T2 construct: expressed in transfected cells; host or cells: HEK-293
T2 sequence (Q03431 27-593): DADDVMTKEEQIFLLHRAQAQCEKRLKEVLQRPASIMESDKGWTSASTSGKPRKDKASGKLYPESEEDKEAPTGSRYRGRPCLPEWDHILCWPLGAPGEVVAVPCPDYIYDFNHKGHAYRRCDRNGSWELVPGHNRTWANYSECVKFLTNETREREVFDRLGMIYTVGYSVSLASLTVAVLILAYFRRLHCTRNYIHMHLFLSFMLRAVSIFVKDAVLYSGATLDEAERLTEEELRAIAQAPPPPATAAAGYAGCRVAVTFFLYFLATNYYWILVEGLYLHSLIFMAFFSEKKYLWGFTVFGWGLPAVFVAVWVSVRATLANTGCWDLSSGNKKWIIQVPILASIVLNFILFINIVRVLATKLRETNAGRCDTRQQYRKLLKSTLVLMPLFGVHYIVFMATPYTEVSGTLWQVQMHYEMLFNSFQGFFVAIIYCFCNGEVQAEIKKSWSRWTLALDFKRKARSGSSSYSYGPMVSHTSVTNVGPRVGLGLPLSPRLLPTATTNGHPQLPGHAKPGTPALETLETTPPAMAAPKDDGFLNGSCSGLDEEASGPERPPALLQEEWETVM
In short: as §1

[3] = biological target: human parathyroid hormone receptor 2 (human, UniProt P49190); test: cell-based or functional assay
[4] = biological target: human parathyroid hormone receptor 1 (human, UniProt Q03431); test: cell-based or functional assay

## CCCC[C@H](NC(=O)[C@H](CC(C)C)NC(=O)[C@H](CCC(N)=O)NC(=O)[C@@H](NC(=O)[C@H](CCC(=O)O)NC(=O)[C@H](CO)NC(=O)[C@@H](NC(=O)[C@@H](N)CO)C(C)C)[C@@H](C)CC)C(=O)N[C@@H](Cc1c[nH]cn1)C(=O)N[C@@H](CC(N)=O)C(=O)N[C@@H](CC(C)C)C(=O)NCC(=O)N[C@@H](CCCCN)C(=O)N[C@@H](Cc1c[nH]cn1)C(=O)N[C@@H](CC(C)C)C(=O)N[C@@H](CCCCN)C(=O)N[C@@H](CO)C(=O)N[C@H](CC(=O)N[C@@H](CCC(=O)O)C(=O)N[C@@H](CCCNC(=N)N)C(=O)N[C@H](C(=O)N[C@@H](CCC(=O)O)C(=O)N[C@@H](Cc1cccc2ccccc12)C(=O)N[C@@H](CC(C)C)C(=O)N[C@@H](CCCNC(=N)N)C(=O)N[C@@H](CCCCN)C(=O)N[C@@H](CC(C)C)C(=O)N[C@@H](CC(C)C)C(=O)N[C@@H](CCC(N)=O)C(=O)N[C@@H](CCCNC(=N)N)C(=O)N[C@H](C(=O)N[C@@H](Cc1c[nH]cn1)C(=O)N[C@@H](CC(N)=O)C(=O)N[C@@H](Cc1ccccc1)C(N)=O)C(C)C)C(C)C)[C@@H](C)CC [SEQ ID NO: 37, [Nle^8, Lys^16, β-hIle^18,1-Nal^23, Leu^27, Arg^30] hPTH (1-34)-NH2] (H-SVSEIQL[Nle]HNLGKHLKS[β3hI]ERVE[1Nal]LRKLLQRVHNF-NH2)
[1]
  EC50: 14 nM
[2]
  EC50: 0.14 nM
[2]; Table 3, ratio of EC50 values, selectivity for hPTH-1 receptor over hPTH-2 receptor
  hPTHR-2/hPTHR-1: 97

B1: [Nle^8, β-hAla^18, 2-Nal^23] hPTH (1-34)-NH2 (peptide)
peptide: SVSEIQL[Nle]HNLGKHLNS[β3hA]ERVE[2Nal]LRKKLQDVHNF-NH2
modifications: N-terminus assumed
SMILES: CCCC[C@H](NC(=O)[C@H](CC(C)C)NC(=O)[C@H](CCC(N)=O)NC(=O)[C@@H](NC(=O)[C@H](CCC(=O)O)NC(=O)[C@H](CO)NC(=O)[C@@H](NC(=O)[C@@H](N)CO)C(C)C)[C@@H](C)CC)C(=O)N[C@@H](Cc1c[nH]cn1)C(=O)N[C@@H](CC(N)=O)C(=O)N[C@@H](CC(C)C)C(=O)NCC(=O)N[C@@H](CCCCN)C(=O)N[C@@H](Cc1c[nH]cn1)C(=O)N[C@@H](CC(C)C)C(=O)N[C@@H](CC(N)=O)C(=O)N[C@@H](CO)C(=O)N[C@@H](C)CC(=O)N[C@@H](CCC(=O)O)C(=O)N[C@@H](CCCNC(=N)N)C(=O)N[C@H](C(=O)N[C@@H](CCC(=O)O)C(=O)N[C@@H](Cc1ccc2ccccc2c1)C(=O)N[C@@H](CC(C)C)C(=O)N[C@@H](CCCNC(=N)N)C(=O)N[C@@H](CCCCN)C(=O)N[C@@H](CCCCN)C(=O)N[C@@H](CC(C)C)C(=O)N[C@@H](CCC(N)=O)C(=O)N[C@@H](CC(=O)O)C(=O)N[C@H](C(=O)N[C@@H](Cc1c[nH]cn1)C(=O)N[C@@H](CC(N)=O)C(=O)N[C@@H](Cc1ccccc1)C(N)=O)C(C)C)C(C)C
[3]
  hPTHR-2 EC50 (nM), luciferase reporter gene assay: 73 nM
[4]
  hPTHR-1 EC50 (nM), CRE-luciferase reporter gene assay: 0.34 nM

B2: [Nle^8, β-hIle^18, 2-Nal^23] hPTH (1-34)-NH2 (peptide)
peptide: SVSEIQL[Nle]HNLGKHLNS[β3hI]ERVE[2Nal]LRKKLQDVHNF-NH2
modifications: N-terminus assumed
SMILES: CCCC[C@H](NC(=O)[C@H](CC(C)C)NC(=O)[C@H](CCC(N)=O)NC(=O)[C@@H](NC(=O)[C@H](CCC(=O)O)NC(=O)[C@H](CO)NC(=O)[C@@H](NC(=O)[C@@H](N)CO)C(C)C)[C@@H](C)CC)C(=O)N[C@@H](Cc1c[nH]cn1)C(=O)N[C@@H](CC(N)=O)C(=O)N[C@@H](CC(C)C)C(=O)NCC(=O)N[C@@H](CCCCN)C(=O)N[C@@H](Cc1c[nH]cn1)C(=O)N[C@@H](CC(C)C)C(=O)N[C@@H](CC(N)=O)C(=O)N[C@@H](CO)C(=O)N[C@H](CC(=O)N[C@@H](CCC(=O)O)C(=O)N[C@@H](CCCNC(=N)N)C(=O)N[C@H](C(=O)N[C@@H](CCC(=O)O)C(=O)N[C@@H](Cc1ccc2ccccc2c1)C(=O)N[C@@H](CC(C)C)C(=O)N[C@@H](CCCNC(=N)N)C(=O)N[C@@H](CCCCN)C(=O)N[C@@H](CCCCN)C(=O)N[C@@H](CC(C)C)C(=O)N[C@@H](CCC(N)=O)C(=O)N[C@@H](CC(=O)O)C(=O)N[C@H](C(=O)N[C@@H](Cc1c[nH]cn1)C(=O)N[C@@H](CC(N)=O)C(=O)N[C@@H](Cc1ccccc1)C(N)=O)C(C)C)C(C)C)[C@@H](C)CC
[3]
  hPTHR-2 EC50 (nM), luciferase reporter gene assay: 42 nM
[4]
  hPTHR-1 EC50 (nM), CRE-luciferase reporter gene assay: 0.25 nM
